Target: P-selectin (pig)
Experiment: cell-based or functional assay

decrease in neutrophil adhesion at stented coronary sites 4 weeks after stenting (pigs, in vivo): 49%
decrease in platelet adhesion at stented coronary sites 4 weeks after stenting (pigs, in vivo): 39%
Substance: soluble P-selectin glycoprotein ligand-1 (PSGL-1) chimera (rPSGL-Ig) (from UniProt Q14242 42-305) (Fc fusion)
decrease in adhesion of 51Cr-platelets to deeply injured arterial segments 1 week following repeat angioplasty (pigs, in vivo): 85%
decrease in adhesion of 111In-neutrophils to deeply injured arterial segments 1 week following repeat angioplasty (pigs, in vivo): 75%
